Assay results: paper PMC8546571, “Methylation of PhoP by CheR Regulates Salmonella Virulence” (mBio, 2021)
Changes are numbered by the printed parent chain. Numbers in names are those of the source.

B1: wild-type PhoP (6×His-tagged, recombinant) (natural protein)
chain: MMRVLVVEDNALLRHHLKVQLQDSGHQVDAAEDAREADYYLNEHLPDIAIVDLGLPDEDGLSLIRRWRSSDVSLPVLVLTAREGWQDKVEVLSSGADDYVTKPFHIEEVMARMQALMRRNSGLASQVINIPPFQVDLSRRELSVNEEVIKLTAFEYTIMETLIRNNGKVVSKDSLMLQLYPDAELRESHTIDVLMGRLRKKIQAQYPHDVITTVRGQGYLFELR
notes: PhoP, response regulator of the PhoP/PhoQ two-component system, S. Typhimurium strain 14028S; phoP PCR amplified from genomic DNA and cloned into pQE80; also called PhoP WT; source: E. coli BL21, purified (Ni-NTA); not shown: His6, C-terminal, kept
B2: PhoP E107A variant (natural protein)
chain: B1 chain with E107A
notes: PhoP, S. Typhimurium strain 14028S, with E107A; source: E. coli BL21, purified (Ni-NTA); not shown: His6, C-terminal, kept
B3: PhoP D9A variant (natural protein)
chain: B1 chain with D9A
notes: PhoP, S. Typhimurium strain 14028S, with D9A; source: E. coli BL21, purified (Ni-NTA); not shown: His6, C-terminal, kept
B4: PhoP E8A variant (natural protein)
chain: B1 chain with E8A
notes: PhoP, S. Typhimurium strain 14028S, with E8A; source: E. coli BL21, purified (Ni-NTA); not shown: His6, C-terminal, kept
B5: PhoP purified from the bacteria with an endogenous level of cheR expression (natural protein)
chain: B1 chain
notes: PhoP, S. Typhimurium strain 14028S, His-tagged and purified from Salmonella; also called PhoP from control cells; PhoP isolated from the wild-type strain; source: S. Typhimurium with an endogenous level of cheR expression, purified (His tag); not shown: His6, C-terminal, kept

What was measured:
[1] = tested on: PhoP from cheR-overexpressing cells (methylated PhoP) (Salmonella enterica serovar Typhimurium 14028S); test: ITC; conditions: EMSA: 25 mM Tris-HCl pH 8.0, 50 mM KCl, 5 mM MgCl2, 0.5 mM EDTA, 10% glycerol, room temp 20 min, 1.6 pmol probe in 10 ul; ITC: 6.15 uM DNA into 0.6 uM PhoP …
[2] = tested on: PhoP from control Salmonella cells (Salmonella enterica serovar Typhimurium 14028S); test: ITC; conditions: EMSA: 25 mM Tris-HCl pH 8.0, 50 mM KCl, 5 mM MgCl2, 0.5 mM EDTA, 10% glycerol, room temp 20 min, 1.6 pmol probe in 10 ul; ITC: 6.15 uM DNA into 0.6 uM PhoP …
[3] = target: the molecule itself; test: cross-linking; purified His-tagged PhoP incubated with 1 mM DSS in 50 mM HEPES-Na pH 7.5, 150 mM NaCl, 10 mM MgCl2, 20% glycerol, 0.05% Tween 20, 25°C, 30 min; Western blot with anti-His antibody; monomer to dimer

Row | Molecule | Kd [1] | Kd [2] | binding result [3]
1 | phoP promoter DNA / PhoP box consensus (ITC) | 0.476 nM | 0.122 nM | –
2 | B1 | – | – | binds
3 | B2 | – | – | binds
4 | B3 | – | – | binds
5 | B4 | – | – | binds
6 | B5 | – | – | binds
